Consider one molecule from patent US20230265192A1 (GIGAGEN, published 2023).

In assay [1] the target is T1, recombinant human CTLA-4-Fc (7268-CT, R&D Systems) (human, UniProt P16410 36-162).
T1 construct: bought; also called rhCTLA-4-Fc; rhCTLA4-Fc; Fc part of the bought chimera not given
The experiment in a line: blocking ELISA, coated CTLA-4-Fc, competitor His-CD86. As for the experimental part:
(§1) Table 24. […] Summary of blocking ELISA data from FIG. 13B. […] The data were then analyzed and fit by nonlinear regression.
(§2) ELISA plates (Nunc, MaxiSorp ELISA plates, flat bottom, uncoated, BioLegend, San Diego, Calif., USA) were coated with recombinant human CTLA-4-Fc (7268-CT, R&D Systems, Minneapolis, Minn., USA) at 1 μg/mL overnight at 4° C. Plates were then blocked with 5% milk in phosphate buffered saline with tween 20 (PBST) for 1 hour at room temperature. A titration series of the indicated mAbs was then added to the plates and then the plates were incubated for 1 hour at room temperature to allow mAb binding. Excess, unbound mAb was removed by washing with PBST. […] After incubation for 1 hour at room temperature, the plates were washed to remove unbound ligand. Bound ligand was detected with a horseradish peroxidase (HRP)-conjugated anti-His antibody (652504, BioLegend, San Diego, Calif., USA). After incubation for 1 hour at room temperature and washing, the plates were developed with 3,3′,5,5′-Tetramethylbenzidine (TMB) substrate (34028, Pierce, Waltham, Mass., USA). […] Absorbance at 450 nm was read using a Spectramax i3x plate reader (Molecular Devices. San Jose, Calif., USA). Half maximal inhibitory concentration (IC50) values were calculated by plotting absorbance versus the log of concentration using Prism (GraphPad, San Diego, Calif., USA).
For orientation: An ELISA detects its analyte on a solid surface through an enzyme-linked reagent.

Assay [2] addresses T1, recombinant human CTLA-4-Fc (7268-CT, …). In words: blocking ELISA, coated CTLA-4-Fc, competitor His-CD80. The method, then:
as §1, §2

T1 sequence (P16410 36-162): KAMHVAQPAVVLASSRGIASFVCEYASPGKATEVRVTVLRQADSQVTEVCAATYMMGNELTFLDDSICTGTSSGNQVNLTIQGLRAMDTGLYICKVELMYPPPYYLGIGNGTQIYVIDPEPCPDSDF

B1: antibody A5 (L5H5) (antibody, V domains shown)
VH: QVQLVESGGGVVQPGRSLRLSCAASGFTFSSYGMHWVRQAPGKGLEWVAVIWYDGNNKYYADSVKGRFTISRDNSKNTLYLQMYSLRAEDTAVYYCARGGILAAGIFDYWGQGTLVTVSS
VL: EIVLTQSPGTLSLSPGDRATLSCRASQSGSSSYLAWYQQKPGQAPRLLIYGASSRATGIPDRFSGSGSGTDFTLTISRLEPEDFAVYYCQQYGTSPFTSGPGTKVDIK
notes: also called aCTLA-4.28; CTLA4.A5
Take B1: the IC50 in assay [1] and in assay [2] was 0.12 µg/mL each time.
